Experimental data published in paper doi:10.1101/2023.12.19.572259.
Like-named read-outs stand apart in the source and are kept apart here.

Columns and labels:
Test in all cases: SPR
[1] = molecular target: monomeric streptavidin variant mSA, wild type
[2] = molecular target: monomeric streptavidin variant mSA, wild type; remark: listed apart in the source
[3] = molecular target: monomeric streptavidin variant mSA with the S27A mutation

Molecule “Smt3 SUMO protein biotinylated at the N-terminus with biotin C2 maleimide (from UniProt Q12306 1-101) (natural protein)” has a Kd [1] of 9.6 nM.

B1: 4NBX.B-biotin103 variant v119 (VHH)
VHH: QVQLQESGGGLAQAGGSLRLSCAASGRTFSHAPMAWFRQPPGKEREFVAAGSSTGRTTYYADSVKGRFTISRDNAKNTVYLQMNSLKPEDTAVYYCAAAPYGCSHYRDEYAYWGQGTQVTVSS
In the case of B1, the Kd [2] is reported as 0.9 nM.

B2: 4NBX.B-biotin103 variant v186_Fr (VHH)
VHH: QVQLQESGGGLVQAGGSLRLSCAASGRTFSRSPMAWYRQPPGKEREFVAAGSSTGTTTYYADSVKGRFTISRDNAKNTVYLQMNSLKPEDTAVYYCAAAPLGCARKFAESAYWGQGTQVTVSS
In the case of B2, the Kd [3] is reported as 54 nM and the Kd [2] is reported as 0.2 nM.

B3: 4NBX.B-biotin103 variant v149 (VHH)
VHH: QVQLQESGGGLAQAGGSLRLSCAASGRTFSRSPMAWFRQPPGKEREFVAAGSSTGRTTYYADSVKGRFTISRDNAKNTVYLQMNSLKPEDTAVYYCAAAPYGCARYRDEYAYWGQGTQVTVSS
Molecule B3 has a Kd [2] of 0.12 nM, a fold higher ka than v119 [2] of 4 fold and a fold lower kd than v119 [2] of 2 fold.
